# Laboratory results: patent US20240307536A1
# Assays:
# Experiment in all cases: cell-based or functional assay
# [1] = target: CXCR3 on SAK cells (human) (UniProt P49682)
# [2] = target: MHC class I on MV411 cells (human)
# [3] = target: CXCR2 on SAK cells (human) (UniProt P25025)
# Chain of UniProt P25025 (P25025 whole entry): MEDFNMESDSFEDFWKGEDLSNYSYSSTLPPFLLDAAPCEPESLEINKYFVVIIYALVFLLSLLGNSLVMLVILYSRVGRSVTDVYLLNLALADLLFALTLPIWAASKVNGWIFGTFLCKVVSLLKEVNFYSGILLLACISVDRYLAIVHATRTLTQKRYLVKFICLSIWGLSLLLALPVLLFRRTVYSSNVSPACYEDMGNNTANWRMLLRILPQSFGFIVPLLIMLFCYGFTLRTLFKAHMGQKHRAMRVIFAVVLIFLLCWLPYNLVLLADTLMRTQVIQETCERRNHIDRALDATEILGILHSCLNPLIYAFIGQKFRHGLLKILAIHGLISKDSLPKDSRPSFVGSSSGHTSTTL
# Chain of UniProt P49682 (P49682 whole entry): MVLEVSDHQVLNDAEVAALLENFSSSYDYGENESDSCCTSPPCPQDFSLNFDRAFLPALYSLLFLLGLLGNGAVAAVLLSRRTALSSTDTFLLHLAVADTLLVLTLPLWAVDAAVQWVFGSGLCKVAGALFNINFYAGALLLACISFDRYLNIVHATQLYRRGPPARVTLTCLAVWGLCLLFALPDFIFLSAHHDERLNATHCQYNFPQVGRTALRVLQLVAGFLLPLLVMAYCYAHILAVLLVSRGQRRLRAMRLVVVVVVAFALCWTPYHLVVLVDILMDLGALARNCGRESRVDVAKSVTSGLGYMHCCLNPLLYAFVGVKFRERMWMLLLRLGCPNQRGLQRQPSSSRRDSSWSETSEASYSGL
substance,measurement,setting,value
IP-10 (PeproTech EC) (from UniProt P02778 22-98) (ligand),"Transwell migration of SAK cells within four hours, percentage of the input cells (500 ng/ml IP-10)",[1],30%
"anti-MHC I antibody (W6/32 clone, Biolegend)","cytotoxic activity of SAK cells against MV411 cells kept in the presence of 1 ug/ml anti-MHC I antibody, CFSE-based cytotoxicity assay",[2],> 40%
rhIL-8 (PeproTech EC) (from UniProt P10145 28-99) (ligand),"Transwell migration of SAK cells within four hours, percentage of the input cells (100 ng/mL IL-8)",[3],3%
